Data as given in article PMC6312871 (Heliyon, 2018).
Where “and” joins values, the source holds several entries; their conditions need not be identical. Equal values may be shown once. Each block holds one molecule with its values, some of them ahead of it.

Key:
[1] = target: Photosystem I (monomer) (Prochlorococcus marinus MIT9313 (endogenous in thylakoid membranes)) (UniProt Q7V510); assay: sucrose gradient centrifugation
[2] = target: Photosystem I (monomer) (Prochlorococcus marinus MIT9313 (endogenous in thylakoid membranes)) (UniProt Q7V510); assay: native gel or EMSA
[3] = target: Photosystem II (monomer, core complex) (Prochlorococcus marinus MIT9313 (endogenous in thylakoid membranes)) (UniProt Q7V6I0); assay: native gel or EMSA
Sequence of Photosystem II (monomer, core complex) (Prochlorococcus marinus MIT9313 (endogenous in thylakoid membranes)) (Q7V6I0 whole entry, looked up, one chain of several): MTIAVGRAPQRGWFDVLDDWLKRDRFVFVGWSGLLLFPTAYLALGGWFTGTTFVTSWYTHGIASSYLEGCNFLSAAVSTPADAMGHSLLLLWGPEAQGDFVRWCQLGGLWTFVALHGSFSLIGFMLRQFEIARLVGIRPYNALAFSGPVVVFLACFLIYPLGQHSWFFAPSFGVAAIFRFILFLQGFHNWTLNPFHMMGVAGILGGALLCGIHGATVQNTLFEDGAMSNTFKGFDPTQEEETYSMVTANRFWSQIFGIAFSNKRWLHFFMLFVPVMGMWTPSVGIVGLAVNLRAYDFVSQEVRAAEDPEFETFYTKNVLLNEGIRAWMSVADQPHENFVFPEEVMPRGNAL

[4] = target: Photosystem II (monomer, core complex) (Prochlorococcus marinus MIT9313 (endogenous in thylakoid membranes)) (UniProt Q7V6I0); assay: native gel or EMSA; remark: listed apart in the source
native gel or EMSA = target: the molecule itself; assay: native gel or EMSA

- stoichiometry N [1]: 3
- stoichiometry N [2]: 3
Molecule: Photosystem I (monomer) (from UniProt Q7V510 1-776; Q7V511 1-749; Q7V8Y4 1-68) (complex)

- stoichiometry N [3]: 2
Molecule: Photosystem II (monomer, core complex) (from UniProt Q7V6I0 1-351; Q7V4Q1 1-49; Q7V4P9 1-65)

- stoichiometry N (PcbB per PSII dimer) [4]: 8
B1: light-harvesting antenna protein PcbB (divinyl chlorophyll a/b-binding protein) (natural protein, UniProt Q7V6U4 1-350, looked up)
chain: MQTYGNPNPTYGWWAGNAGTTNRSGKFLAAHIAHTGLMAFWAGSFTLFELSRYDPSVPMGHQPLVALPHLATLGIGVGDGGVITDTYPIVVTAVLHLVLSMVYAAGGLMHSLLFNGDIGEMGVKWARKFDFKWDDPDKLTFILGHHLFLLGLGNVQFVEWAKYYGLYDNAEGVVRTVVPNLNIGMVWNAQFNFLAINSLEDVMGGHAFLALFMMSGGLWHIVTKQAGEYTTFKGKGILSAEAQLSWALAGVGWMALVAAFWCASNTTIYPDTFFGEVLDLKFSISPYWVDTANLPEGTYTSRAWLTNIHYYLGFFYIQGHLWHALRALGFDFKRVSNAIGNADSATITLN
- stoichiometry N (native gel or EMSA): 2 and 3 and 4
